Experiment [1] concerns the target epidermal growth factor receptor (EGFR) on human tumor cells (human, UniProt P00533 25-1210). Description: cell-based or functional assay.
In experiment [2] the target is T1, Insulin.
T1 construct: Bought reagent, coated at 5 ug/mL
Description: ELISA, insulin coated, 100 nM antibody. Here is the method:
(§1) The experimental steps are as follows [0420] […] (4) 50 μl anti-human IgG-HRP conjugate (Sigma, AP113P, 1:8000 dilution) was added to each well; the plate was incubated for 1 h at room temperature and washed 6 times with 0.05% PBST; [0424] (5) 50 μl of TMB chromogenic solution (Biopanda, TMB-S-001) was added to each well and incubated at room temperature for 10-15 minutes for color development; [0425] (6) 50 μl of 1M HCl was added to each well to stop the color development, and the absorbance at 450 nm was measured using a microplate reader (Biotek, SYNERGY LX); Data analysis: If the ratio between the absorbance of the antibody and the absorbance of the blank control PBS is ≥3, there is too much non-specific binding.
In general terms: ELISA stands for enzyme-linked immunosorbent assay.

The target of experiment [3] is T2, keyhole limpet haemocyanin.
T2 construct: Bought reagent, coated at 5 ug/mL; also called KLH
Description: ELISA, KLH coated, 100 nM antibody. Here is the method:
as §1

Experiment [4] addresses T3, recombinant human EGFR protein (ACRO systems, EGR-H5222) (human, UniProt P00533 25-645).
T3 construct: Bought
Description: BLI, antibody on AHC sensor, antigen as analyte. On the procedure:
(§2) Antibodies were first captured onto an anti-human IgG Fc coated AHC biosensor (Anti-hIgG Fc, Sartorius, 18-5060). Antibodies were diluted to 5 μg/mL and 1.5 nm protein was coupled to the AHC sensor surface in 0.02% PBST.
(§3) After the sensor captures the antibodies, it binds and dissociates with different concentrations of analytes to obtain the KD value of the interaction. The experimental parameters are as follows: Baseline1: 60 s, Loading: 240 s, Baseline2: 180 s, Association: 240 s, Dissociation: 600 s, High sensitivity kinetics: 2 Hz. Kinetic constants were derived based on the rate equation for 1:1 Langmuir binding to obtain equilibrium dissociation constants (KD). The Data Analysis HT 12 software (Sartorius, 50-5029) was used to simultaneously fit binding and dissociation curves to calculate Kₒₙ and Koff. The affinity KD was calculated based on the below formula: KD=Koff/Kₒₙ.
On the technique in general: In BLI a coated tip is dipped into the sample, and binding shifts an interference pattern.

Experiment [5] has as its target T4, recombinant human protein CD3ε/δ (ACRO systems, CDD-H52W1) (human, UniProt P07766 23-126; P04234 22-105).
T4 construct: Bought heterodimer
Description: BLI, antibody on AHC sensor, antigen as analyte. On the procedure:
as §2, §3

The target of experiment [6] is T5, recombinant human tumor antigen CEACAM-6 (ACRO systems, CE6-H5223) (human, UniProt P40199 35-320).
T5 construct: Bought
T5 sequence (looked up): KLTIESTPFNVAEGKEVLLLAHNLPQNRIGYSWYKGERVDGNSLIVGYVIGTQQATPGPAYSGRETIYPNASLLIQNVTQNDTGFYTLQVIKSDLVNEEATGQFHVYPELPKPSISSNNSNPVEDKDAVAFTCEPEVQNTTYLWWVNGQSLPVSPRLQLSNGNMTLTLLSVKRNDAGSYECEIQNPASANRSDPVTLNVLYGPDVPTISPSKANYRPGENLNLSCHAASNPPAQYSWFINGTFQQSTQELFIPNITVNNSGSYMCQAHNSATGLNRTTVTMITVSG
Description: BLI, antibody on AHC sensor, antigen as analyte. Here is the method: as §2, §3

The term koff denotes a measure of how fast the partners let go of each other. As usually defined, the kon is a measure of how fast the partners come together. The term Kd denotes the free concentration of one partner at which half of the binding sites on the other are occupied at equilibrium, for simple one-to-one binding.

T4 sequence (P07766 23-126, stated change not applied, chain 1 of 2): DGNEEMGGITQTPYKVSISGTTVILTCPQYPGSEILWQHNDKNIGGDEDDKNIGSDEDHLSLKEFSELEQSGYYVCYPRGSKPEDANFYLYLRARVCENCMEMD
T4 sequence (P04234 22-105, stated change not applied, chain 2 of 2): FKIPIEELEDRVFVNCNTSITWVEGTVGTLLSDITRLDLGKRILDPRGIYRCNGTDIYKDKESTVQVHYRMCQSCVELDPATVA

B1: EGFR-BsAb bispecific control antibody (anti-CD3 TA1 Fab and EGFR VHH) (bispecific antibody, human IgG4 S228P, kappa, F234A L235A)
heavy: EVKLLESGGGLVQPKGSLKLSCAASGFTFNTYAMNWVRQAPGKGLEWVARIRSKYNNYATYYADSVKDRFTISRDDSQSILYLQMNNLKTEDTAMYYCVRHGNFGNSYVSWFAYWGQGTLVTVSSASTKGPSVFPLAPCSRSTSESTAALGCLVKDYFPEPVTVSWNSGALTSGVHTFPAVLQSSGLYSLSSVVTVPSSSLGTKTYTCNVDHKPSNTKVDKRVESKYGPPCPPCPAPEAAGGPSVFLFPPKPKDTLMISRTPEVTCVVVDVSQEDPEVQFNWYVDGVEVHNAKTKPREEQFNSTYRVVSVLTVLHQDWLNGKEYKCKVSNKGLPSSIEKTISKAKGQPREPQVYTLPPCQEEMTKNQVSLWCLVKGFYPSDIAVEWESNGQPENNYKTTPPVLDSDGSFFLYSRLTVDKSRWQEGNVFSCSVMHEALHNHYTQKSLSLSL
chain: QVQLQESGGGSVQAGGSLKLSCAASGRGFSRYAMGWFRQAPGQDREFVATISWTNSTDYADSVKGRFAISRDNAKNTAYLQMNSLKPEDTAVYYCAADKWASSTRSIDYDYWGQGIQVTVSSESKYGPPCPPCPAPEAAGGPSVFLFPPKPKDTLMISRTPEVTCVVVDVSQEDPEVQFNWYVDGVEVHNAKTKPREEQFNSTYRVVSVLTVLHQDWLNGKEYKCKVSNKGLPSSIEKTISKAKGQPREPQVCTLPPSQEEMTKNQVSLSCAVKGFYPSDIAVEWESNGQPENNYKTTPPVLDSDGSFFLVSRLTVDKSRWQEGNVFSCSVMHEALHNRFTQKSLSLSL
light: QAVVTQESALTTSPGETVTLTCRSSTGAVTTSNYANWVQEKPDHLFTGLIGGTNKRAPGVPARFSGSLIGDKAALTITGAQTEDEAIYFCALWYSNLWVFGGGTKVEIKRTVAAPSVFIFPPSDEQLKSGTASVVCLLNNFYPREAKVQWKVDNALQSGNSQESVTEQDSKDSTYSLSSTLTLSKADYEKHKVYACEVTHQGLSSPVTKSFNRGEC
On to B1, for which, in experiment [1], the “T cell mediated killing EC50, H-1975 (EGFR+c-Met+)” value was 0.32 pM; the “T cell mediated killing EC50, HT-29 (EGFR+c-Met+)” value came to 0.387 pM; the “T cell mediated killing EC50, OSRC2 (EGFR+++c-Met+)” value was 2.45 pM; the “T cell mediated killing EC50, UT33A (EGFR+++c-Met+++)” value is 0.398 pM. Moreover, the “T cell mediated killing EC50, UT44 (EGFR+++c-Met++)” value in experiment [1] was determined as 0.154 pM.

B2: CEA-BsAb bispecific control antibody (TA1-Fab anti-CD3 x CEA VHH) (bispecific antibody, human IgG4 S228P, kappa, F234A L235A)
heavy: EVKLLESGGGLVQPKGSLKLSCAASGFTFNTYAMNWVRQAPGKGLEWVARIRSKYNNYATYYADSVKDRFTISRDDSQSILYLQMNNLKTEDTAMYYCVRHGNFGNSYVSWFAYWGQGTLVTVSSASTKGPSVFPLAPCSRSTSESTAALGCLVKDYFPEPVTVSWNSGALTSGVHTFPAVLQSSGLYSLSSVVTVPSSSLGTKTYTCNVDHKPSNTKVDKRVESKYGPPCPPCPAPEAAGGPSVFLFPPKPKDTLMISRTPEVTCVVVDVSQEDPEVQFNWYVDGVEVHNAKTKPREEQFNSTYRVVSVLTVLHQDWLNGKEYKCKVSNKGLPSSIEKTISKAKGQPREPQVYTLPPCQEEMTKNQVSLWCLVKGFYPSDIAVEWESNGQPENNYKTTPPVLDSDGSFFLYSRLTVDKSRWQEGNVFSCSVMHEALHNHYTQKSLSLSL
chain: EVQLVESGGGFVQAGESLTLSCTSSTLTFTPYRMAWYRQAPGKQRDLVADISSGDGRTTNYADFAKGRFTISRDNIKNTVFLRMTNLKPEDTAVYYCNTFVSFVGIARSWGQGTQVTVSSESKYGPPCPPCPAPEAAGGPSVFLFPPKPKDTLMISRTPEVTCVVVDVSQEDPEVQFNWYVDGVEVHNAKTKPREEQFNSTYRVVSVLTVLHQDWLNGKEYKCKVSNKGLPSSIEKTISKAKGQPREPQVCTLPPSQEEMTKNQVSLSCAVKGFYPSDIAVEWESNGQPENNYKTTPPVLDSDGSFFLVSRLTVDKSRWQEGNVFSCSVMHEALHNRFTQKSLSLSL
light: QAVVTQESALTTSPGETVTLTCRSSTGAVTTSNYANWVQEKPDHLFTGLIGGTNKRAPGVPARFSGSLIGDKAALTITGAQTEDEAIYFCALWYSNLWVFGGGTKVEIKRTVAAPSVFIFPPSDEQLKSGTASVVCLLNNFYPREAKVQWKVDNALQSGNSQESVTEQDSKDSTYSLSSTLTLSKADYEKHKVYACEVTHQGLSSPVTKSFNRGEC
notes: IgG4
Turning to B2, the “absorbance ratio to PBS blank” value was determined as 1.24 in experiment [2] and 2.16 in experiment [3].

B3: CEACAM6-BsAb (CD3 TA1-Fab x CEA-CAM6 VHH bispecific control antibody) (bispecific antibody, human IgG4 S228P, kappa, F234A L235A)
heavy: EVKLLESGGGLVQPKGSLKLSCAASGFTFNTYAMNWVRQAPGKGLEWVARIRSKYNNYATYYADSVKDRFTISRDDSQSILYLQMNNLKTEDTAMYYCVRHGNFGNSYVSWFAYWGQGTLVTVSSASTKGPSVFPLAPCSRSTSESTAALGCLVKDYFPEPVTVSWNSGALTSGVHTFPAVLQSSGLYSLSSVVTVPSSSLGTKTYTCNVDHKPSNTKVDKRVESKYGPPCPPCPAPEAAGGPSVFLFPPKPKDTLMISRTPEVTCVVVDVSQEDPEVQFNWYVDGVEVHNAKTKPREEQFNSTYRVVSVLTVLHQDWLNGKEYKCKVSNKGLPSSIEKTISKAKGQPREPQVYTLPPCQEEMTKNQVSLWCLVKGFYPSDIAVEWESNGQPENNYKTTPPVLDSDGSFFLYSRLTVDKSRWQEGNVFSCSVMHEALHNHYTQKSLSLSL
chain: QVKLEESGGGLVQAGGSLRLSCRTSGRTNSVYTMGWFRQAPGKEREFVAQIMWGAGTNTHYADSVKGRFTISRDSAESTVYLQMNSLKPEDTAVYYCAANRGIPIAGRQYDYWGQGTQVTVSSESKYGPPCPPCPAPEAAGGPSVFLFPPKPKDTLMISRTPEVTCVVVDVSQEDPEVQFNWYVDGVEVHNAKTKPREEQFNSTYRVVSVLTVLHQDWLNGKEYKCKVSNKGLPSSIEKTISKAKGQPREPQVCTLPPSQEEMTKNQVSLSCAVKGFYPSDIAVEWESNGQPENNYKTTPPVLDSDGSFFLVSRLTVDKSRWQEGNVFSCSVMHEALHNRFTQKSLSLSL
light: QAVVTQESALTTSPGETVTLTCRSSTGAVTTSNYANWVQEKPDHLFTGLIGGTNKRAPGVPARFSGSLIGDKAALTITGAQTEDEAIYFCALWYSNLWVFGGGTKVEIKRTVAAPSVFIFPPSDEQLKSGTASVVCLLNNFYPREAKVQWKVDNALQSGNSQESVTEQDSKDSTYSLSSTLTLSKADYEKHKVYACEVTHQGLSSPVTKSFNRGEC
notes: also called anti-CEA-CAM6-BsAb
In the case of B3, in experiment [4], the koff worked out at 0.00143 s⁻¹ and the kon was 570000 M⁻¹ s⁻¹. Besides, in experiment [5], the dissociation constant (Kd) came out at 5730 pM, the koff worked out at 0.00421 s⁻¹ and the kon turned out to be 734000 M⁻¹ s⁻¹. Besides, in experiment [6], the Kd turned out to be 1640 pM, the koff turned out to be 0.000336 s⁻¹ and the kon came to 206000 M⁻¹ s⁻¹.

B4: EGFR-BsAb (CD3 TA1-Fab x EGFR VHH bispecific control antibody) (bispecific antibody, human IgG4 S228P, kappa, F234A L235A)
heavy: EVKLLESGGGLVQPKGSLKLSCAASGFTFNTYAMNWVRQAPGKGLEWVARIRSKYNNYATYYADSVKDRFTISRDDSQSILYLQMNNLKTEDTAMYYCVRHGNFGNSYVSWFAYWGQGTLVTVSSASTKGPSVFPLAPCSRSTSESTAALGCLVKDYFPEPVTVSWNSGALTSGVHTFPAVLQSSGLYSLSSVVTVPSSSLGTKTYTCNVDHKPSNTKVDKRVESKYGPPCPPCPAPEAAGGPSVFLFPPKPKDTLMISRTPEVTCVVVDVSQEDPEVQFNWYVDGVEVHNAKTKPREEQFNSTYRVVSVLTVLHQDWLNGKEYKCKVSNKGLPSSIEKTISKAKGQPREPQVYTLPPCQEEMTKNQVSLWCLVKGFYPSDIAVEWESNGQPENNYKTTPPVLDSDGSFFLYSRLTVDKSRWQEGNVFSCSVMHEALHNHYTQKSLSLSL
chain: QVQLQESGGGSVQAGGSLKLSCAASGRGFSRYAMGWFRQAPGQDREFVATISWTNSTDYADSVKGRFAISRDNAKNTAYLQMNSLKPEDTAVYYCAADKWASSTRSIDYDYWGQGIQVTVSSESKYGPPCPPCPAPEAAGGPSVFLFPPKPKDTLMISRTPEVTCVVVDVSQEDPEVQFNWYVDGVEVHNAKTKPREEQFNSTYRVVSVLTVLHQDWLNGKEYKCKVSNKGLPSSIEKTISKAKGQPREPQVCTLPPSQEEMTKNQVSLSCAVKGFYPSDIAVEWESNGQPENNYKTTPPVLDSDGSFFLVSRLTVDKSRWQEGNVFSCSVMHEALHNRFTQKSLSLSL
light: QAVVTQESALTTSPGETVTLTCRSSTGAVTTSNYANWVQEKPDHLFTGLIGGTNKRAPGVPARFSGSLIGDKAALTITGAQTEDEAIYFCALWYSNLWVFGGGTKVEIKRTVAAPSVFIFPPSDEQLKSGTASVVCLLNNFYPREAKVQWKVDNALQSGNSQESVTEQDSKDSTYSLSSTLTLSKADYEKHKVYACEVTHQGLSSPVTKSFNRGEC
notes: also called anti-EGFR-BsAb
On to B4, for which, in experiment [4], the Kd amounted to 4430 pM, the koff came to 0.00519 s⁻¹ and the kon amounted to 1.17e+06 M⁻¹ s⁻¹. In experiment [5], the Kd was 6430 pM, the koff was 0.00338 s⁻¹ and the kon worked out at 526000 M⁻¹ s⁻¹. Moreover, in experiment [6], the koff was 0.000247 s⁻¹ and the kon worked out at 222000 M⁻¹ s⁻¹.

The record behind these values is patent US20240409635A1 (VIBRANT PHARMA, published 2024).
